What was measured:
[1] = molecular target: SecYEG G297LBT (UniProt P0AGA2); experiment: FRET or BRET
[2] = molecular target: SecYEG (UniProt P0AGA2); experiment: high-speed atomic force microscopy

Row | Substance | occupancy of SecYEG molecules by SecA [1] [%] | Kd [2] [nM] | tau off (time constant of the periods in which SecA was bound) [2] [s] | tau on (time constant of the unbound periods until SecA rebinds) [2] [s]
1 | SecA(N95) K797C labeled with Atto488 (from UniProt P10408 1-901) (natural protein) | 10 |  |  | 
2 | SecA (from UniProt P10408 1-901) (natural protein) |  | 10 | 1.1 | 1.7

Reference: article PMC9418451
